We go through one molecule from patent US20210332120A1 (JOINT STOCK COMPANY BIOCAD, published 2021).

One experiment addresses T1, TNFα multta (multta (so in the source); primate), UniProt P48094 77-233).
T1 construct: The species is printed only as 'multta'; read as Macaca mulatta
The experiment in a line: SPR Biacore T200; ligand amine-coupled, antibody 1 to 25 µg/ml, Heterogeneous Ligand model. For orientation: In SPR one partner is held on a chip, and binding of the other changes the refractive index at the surface.

Another experiment addresses T2, cynomolgus IL-17A (cyno, UniProt A0A2K5TTB0 24-155).
T2 construct: also called IL-17A cyno
The experiment is described as above.

The target in the next experiment is T3, human IL-17E (human, UniProt Q9H293 33-177).
T3 sequence (looked up): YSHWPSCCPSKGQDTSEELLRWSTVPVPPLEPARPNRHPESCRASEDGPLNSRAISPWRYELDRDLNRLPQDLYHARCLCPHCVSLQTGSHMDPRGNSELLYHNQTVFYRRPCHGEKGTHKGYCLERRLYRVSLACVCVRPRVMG
Kind of experiment: ELISA, plate coated with human IL-17E, anti-Fab HRP detection. A general note: An ELISA detects its analyte on a solid surface through an enzyme-linked reagent.

The target of experiment [1] is T4, human IL-17A (human, UniProt Q16552 20-155, limits assumed).
T4 construct: Recombinant preparations from several makers were used; also called IL-17A human; IL-17A-biotin
The experiment in a line: SPR Biacore T200; ligand amine-coupled, antibody 1 to 25 µg/ml, Heterogeneous Ligand model; * below the threshold sensitivity of the device.
Experimental: (§1) The analysis was conducted using the Sandwich approach using IL-17A and TNFα preparations produced by Sino Biologics. After activation of the chips, individual ligand was nonspecifically (by NH2 groups) immobilized on the biosensor surface at a concentration of 20 μg/ml. Loading of the antibody was then performed at a concentration from 1 to 25 μg/ml. Thereafter, the sensors were immersed in the running buffer for the complex dissociation step. The flow rate was 10 μl/min.
(§2) Analysis of the obtained data was performed using BIA Evolution 3.1 software and the Heterogeneous Ligand model.

Experiment [2] addresses T4, human IL-17A. The experiment in a line: cell-based or functional assay.
The target of the next experiment is T5, human IL-17B (human, UniProt Q9UHF5 21-180).
T5 sequence (looked up): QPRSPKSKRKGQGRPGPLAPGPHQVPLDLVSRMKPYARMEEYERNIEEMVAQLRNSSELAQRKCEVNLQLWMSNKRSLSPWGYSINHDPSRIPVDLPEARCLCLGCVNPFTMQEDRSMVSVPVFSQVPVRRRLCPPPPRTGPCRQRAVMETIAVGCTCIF
The experiment in a line: ELISA, plate coated with human IL-17B, anti-Fab HRP detection.

For a further experiment, the target named is T6, human IL-17F (human, UniProt Q96PD4 31-163).
T6 construct: also called IL-17F human
T6 sequence (looked up): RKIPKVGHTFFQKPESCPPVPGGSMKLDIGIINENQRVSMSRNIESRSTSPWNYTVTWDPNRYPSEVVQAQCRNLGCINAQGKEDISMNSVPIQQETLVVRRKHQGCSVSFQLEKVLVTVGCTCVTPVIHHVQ
The experiment in a line: BLI OctetRED96.

The target in another experiment is T7, mouse TNFα (mouse, UniProt P06804 80-235).
T7 sequence (looked up): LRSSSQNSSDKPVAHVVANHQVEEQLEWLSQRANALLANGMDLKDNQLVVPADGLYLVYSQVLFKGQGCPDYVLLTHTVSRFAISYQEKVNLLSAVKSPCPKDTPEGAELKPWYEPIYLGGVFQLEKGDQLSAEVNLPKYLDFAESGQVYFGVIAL
The experiment in a line: ELISA, plate coated with mouse TNFα, anti-Fab HRP detection.

A further experiment deals with T8, human IL-17C (human, UniProt Q9P0M4 19-197).
T8 sequence (looked up): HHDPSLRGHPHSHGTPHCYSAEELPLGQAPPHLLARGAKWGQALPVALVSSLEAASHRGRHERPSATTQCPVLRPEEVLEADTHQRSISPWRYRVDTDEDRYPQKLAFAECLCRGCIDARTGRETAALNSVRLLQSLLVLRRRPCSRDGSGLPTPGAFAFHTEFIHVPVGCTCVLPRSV
Kind of experiment: ELISA, plate coated with human IL-17C, anti-Fab HRP detection.

A further experiment concerns the target T9, guinea pig TNFα (guinea pig, UniProt P51435 80-234, limits assumed).
T9 sequence (looked up): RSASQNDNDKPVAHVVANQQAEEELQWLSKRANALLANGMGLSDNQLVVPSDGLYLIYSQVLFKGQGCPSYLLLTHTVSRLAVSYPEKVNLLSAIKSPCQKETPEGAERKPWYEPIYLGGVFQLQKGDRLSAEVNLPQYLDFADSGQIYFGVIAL
Kind of experiment: ELISA, plate coated with guinea pig TNFα, anti-Fab HRP detection.

The target of a further experiment is T10, rabbit TNFα (rabbit, UniProt P04924 80-235, limits assumed).
T10 sequence (looked up): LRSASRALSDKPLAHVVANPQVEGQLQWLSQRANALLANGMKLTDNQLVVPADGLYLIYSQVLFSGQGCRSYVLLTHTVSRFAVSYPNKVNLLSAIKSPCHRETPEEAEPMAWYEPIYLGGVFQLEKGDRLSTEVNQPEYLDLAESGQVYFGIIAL
Kind of experiment: ELISA, plate coated with rabbit TNFα, anti-Fab HRP detection.

Another experiment has as its target T11, human IL-17D (human, UniProt Q8TAD2 18-202, limits assumed).
T11 sequence (looked up): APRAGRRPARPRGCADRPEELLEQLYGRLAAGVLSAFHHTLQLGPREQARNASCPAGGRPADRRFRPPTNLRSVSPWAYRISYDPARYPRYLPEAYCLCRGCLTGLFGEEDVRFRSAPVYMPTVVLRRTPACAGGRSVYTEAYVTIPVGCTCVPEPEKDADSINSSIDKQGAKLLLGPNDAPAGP
The experiment in a line: ELISA, plate coated with human IL-17D, anti-Fab HRP detection.

T4 sequence (Q16552 20-155 limits assumed): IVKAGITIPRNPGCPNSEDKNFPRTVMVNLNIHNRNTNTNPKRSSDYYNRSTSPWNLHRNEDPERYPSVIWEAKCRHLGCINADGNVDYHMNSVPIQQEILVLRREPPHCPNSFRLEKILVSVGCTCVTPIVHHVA
T1 sequence (P48094 77-233 limits assumed): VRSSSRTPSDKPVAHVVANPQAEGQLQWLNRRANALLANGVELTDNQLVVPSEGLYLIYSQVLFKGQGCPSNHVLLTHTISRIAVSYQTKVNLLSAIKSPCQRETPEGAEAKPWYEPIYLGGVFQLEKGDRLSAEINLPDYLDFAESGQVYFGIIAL
T2 sequence (A0A2K5TTB0 entry or part of it): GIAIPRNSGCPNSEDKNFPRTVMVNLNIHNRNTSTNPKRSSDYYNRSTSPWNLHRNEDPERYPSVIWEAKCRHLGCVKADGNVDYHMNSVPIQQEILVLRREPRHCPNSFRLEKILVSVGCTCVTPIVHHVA
Experimental for TNFα multta: as §1, §2
Experimental for cynomolgus IL-17A: as §1, §2
Experimental for human IL-17B: (§3) For the binding analysis, the wells of ELISA plates (medium binding from Greiner bio one) were individually coated with 50 μl of human IL-17A, IL-17B, IL-17C, IL-17D, IL-17E, IL-17F, or IL-17A/F (R&D Systems) at a concentration of 1 μg/ml (in 1× coating carbonate buffer), hermetically sealed, and incubated overnight at 4 C. All subsequent steps were performed by standard EIA protocol. To block non-specific binding blocking, buffer BB was added (200 μl of 0.5% skim milk in PBS). Plates were incubated on a shaker for one hour at room temperature. After washes with PBS-Tween, 50 μl of the test antibodies were added to each well at a concentration of 5 μg/ml in PBS-Tween. Plates were again incubated with shaking for one hour at room temperature, then each well of the plates was washed three times with PBS-Tween buffer. After washing, human anti-Fab HRP-conjugated secondary antibody (from Pierce-ThermoScientific) was added (50 μl/well) at a ratio of 1:5000 in PBS-Tween. Plates were shaken on a rotary shaker (50 min, room temperature) and washed three times with PBS-Tween buffer, as described above. […] The color signal was measured at 450 nm using a suitable plate-reader (Tecan-Sunrise; Tecan).
Experimental for human IL-17C: as §3
Experimental for human IL-17D: as §3
Experimental for human IL-17E: as §3

B1: BCD-121 tri-specific anti-IL-17A/anti-IL-17F/anti-TNFα antibody (bispecific antibody, human IgG1, kappa, L234A L235A)
heavy: not shown
light: EVQLVQSGGGLVQAGGSLRLSCAASGGTFATSPMGWLRQAPGKGTEFVAAISPSGGDRIYADSVKGRFTISRDNAGNFIYLQMNSLKPEDTAVYYCAVRRRFDGTSYYTGDYDSWGQGTLVTVSSGGGSGGGSEGAGSDIQMTQSPSSLSASVGDRVTITCKASQNVGTNVAWYQQKPGKAPKALIYSASFLYSGVPYRFSGSGSGTDFTLTISSLQPEDFATYYCQQYNIFPLTFGQGTKVEIKRTVAAPSVFIFPPSDEQLKSGTASVVCLLNNFYPREAKVQWKVDNALQSGNSQESVTEQDSKDSTYSLSSTLTLSKADYEKHKVYACEVTHQGLSSPVTKSFNRGEC
notes: also called Mab12; VHH-IgG1 (LALA)
In the case of B1, the Kd – broadly, the equilibrium constant for the complex coming apart – was roughly 1 pM in the experiment with TNFα multta, roughly 1 pM with cynomolgus IL-17A, less than 1 pM with human IL-17A [1] and roughly 4000 pM with human IL-17F. Further, the binding result with human IL-17E was “no binding (tested: 0,5 ng/ml)”; in the experiment with human IL-17B it was “no binding (tested: 0,5 ng/ml)”; with mouse TNFα, “no binding (tested: 2 ng/ml)”; with human IL-17C, “no binding (tested: 0,5 ng/ml)”; with guinea pig TNFα, “no binding (tested: 2 ng/ml)”; with rabbit TNFα, “no binding (tested: 2 ng/ml)”. Moreover, the binding result in the experiment with human IL-17D is “no binding (tested: 0,5 ng/ml)”. Moreover, the “IC50, IL-17A and TNFα induced IL-6 production, HT1080 cells” value with human IL-17A [2] was found to be 0.02 mg/L. In addition, the “IC50, IL-17A-dependent IL-6 production, HT1080 cells” value with human IL-17A [2] stood at 0.0035 mg/L.
